B1: Ribonuclease, P00648 (parent)
chain: MMKMEGIALKKRLSWISVCLLVLVSAAGMLFSTAAKTETSSHKAHTEAQVINTFDGVADYLQTYHKLPDNYITKSEAQALGWVASKGNLADVAPGKSIGGDIFSNREGKLPGKSGRTWREADINYTSGFRNSDRILYSSDWLIYKTTDHYQTFTKIR

The variants in the series derive from B1. The note with it: Bacillus amyloliquefaciens; pH 6.3; 25 °C; Urea; Fluorescence; MES-NaOH 50 mM; reversible: yes; structure 1BNI; whole UniProt chain shown.

Regarding D59A T63R, the “ddG of mutation (higher = less stable)” value stood at 0.13 kcal/mol, the denaturant m value worked out at 2.24 kcal/mol/M, the “denaturant midpoint (higher = more stable)” value worked out at 4.4 M and the unfolding free energy came out at 9.88 kcal/mol.
For T63R, the “ddG of mutation (higher = less stable)” value turned out to be 0.78 kcal/mol, the denaturant m value stood at 1.94 kcal/mol/M, the “denaturant midpoint (higher = more stable)” value is 4.75 M and the unfolding free energy was found to be 9.23 kcal/mol.
Taken in the same sequence, the figures for D59A were -0.11 kcal/mol, 2.33 kcal/mol/M, 4.33 M and 10.1 kcal/mol.

The values above are taken from FireProtDB (doi:10.1021/bi00492a006).
